These are literature values, as cited in paper PMC3472031.

Among the targets are SOS-E peptide (UniProt Q07889); SOS-A peptide (UniProt Q07889); EspFU (Escherichia coli) (UniProt P0DJ88).
In series [1] the target is EspFU R475 R475 (fifth 47-residue repeat) (Escherichia coli O157:H7) (UniProt P0DJ88).
Series [2] deals with EspFU peptide (Escherichia coli) (UniProt P0DJ88). In words: ITC.

With N-WASPC 193-501 (from UniProt O00401), the Kd in series [1] was 35 nM.
Grb2 (from UniProt P62993): the values for the Kd in the series with SOS-E peptide and with SOS-A peptide were 3500 nM and 54000 nM, respectively.
With N-WASP 193-501 (from UniProt O00401), in the series with EspFU (Escherichia coli), the dissociation constant Kd was 35 nM.
As for IRTKS SH3 (from UniProt Q9UHR4), the Kd in series [2] is 500 nM.

As a reminder, the Kd is the free concentration of one partner at which half of the binding sites on the other are occupied at equilibrium, for simple one-to-one binding.
